# Experimental data from the Immune Epitope Database (IEDB).
# What was measured:
# [1] = target: HLA-A*02:01; test: IEDB peptide-MHC binding, purified MHC/direct/fluorescence; filed as Kd, often an IC50 or EC50 that approximates it; ≥ and ≤ were set here for values at or beyond the usual limits of such assays
# [2] = target: HLA-A*02:11; test: as above
# [3] = target: HLA-A*69:01; test: as above
# [4] = target: HLA-A*02:50; test: IEDB peptide-MHC binding, purified MHC/competitive/fluorescence; filed as Kd, often an IC50 or EC50 that approximates it; ≥ and ≤ were set here for values at or beyond the usual limits of such assays
# [5] = target: HLA-C*12:03; test: IEDB peptide-MHC binding, purified MHC/direct/fluorescence; filed as Kd, often an IC50 or EC50 that approximates it; ≥ and ≤ were set here for values at or beyond the usual limits of such assays; settings: source organism: Salmonella enterica subsp. enterica serovar Typhi
# [6] = target: HLA-B*15:17; test: as above; settings: source organism: Mycobacterium tuberculosis
# [7] = target: HLA-A*11:01; test: as above; settings: source organism: Mycobacterium tuberculosis
# [8] = target: HLA-A*68:02; test: as above; settings: source organism: Mycobacterium tuberculosis
# [9] = target: HLA-B*39:01; test: as above
# [10] = target: HLA-A*26:01; test: as above; settings: source organism: Mycobacterium tuberculosis str. Haarlem
# [11] = target: HLA-B*15:09; test: as above
# [12] = target: HLA-B*18:01; test: as above; settings: source organism: Mycobacterium tuberculosis
# [13] = target: HLA-B*58:01; test: as above; settings: source organism: Mycobacterium tuberculosis
# [14] = target: HLA-B*15:01; test: as above; settings: source organism: Mycobacterium tuberculosis
# [15] = target: HLA-A*31:01; test: as above; settings: source organism: Mycobacterium tuberculosis
# [16] = target: HLA-B*40:01; test: as above; settings: source organism: Mycobacterium tuberculosis
# [17] = target: HLA-B*08:01; test: as above; settings: source organism: Mycobacterium tuberculosis str. Haarlem
# [18] = target: HLA-B*27:05; test: as above; settings: source organism: Mycobacterium tuberculosis
# [19] = target: HLA-B*07:02; test: as above; settings: source organism: Mycobacterium tuberculosis
# [20] = target: HLA-A*03:01; test: as above; settings: source organism: Mycobacterium tuberculosis
# [21] = target: HLA-B*44:02; test: as above; settings: source organism: Mycobacterium tuberculosis
# [22] = target: HLA-B*57:01; test: as above; settings: source organism: Mycobacterium tuberculosis
# [23] = target: HLA-A*01:01; test: as above; settings: source organism: Mycobacterium tuberculosis
# [24] = target: HLA-B*48:01; test: as above; settings: source organism: Mycobacterium tuberculosis
# [25] = target: HLA-A*02:03; test: IEDB peptide-MHC binding, purified MHC/competitive/fluorescence; filed as Kd, often an IC50 or EC50 that approximates it; ≥ and ≤ were set here for values at or beyond the usual limits of such assays
# [26] = target: HLA-A*02:01; test: as above; settings: source organism: Canarypox virus
# [27] = target: HLA-B*46:01; test: as above; settings: source organism: Canarypox virus
# [28] = target: HLA-A*02:11; test: as above; settings: source organism: Canarypox virus
# [29] = target: HLA-B*15:17; test: as above; settings: source organism: Canarypox virus
# [30] = target: HLA-A*68:02; test: as above; settings: source organism: Canarypox virus
# [31] = target: HLA-B*39:01; test: as above; settings: source organism: Canarypox virus
# [32] = target: HLA-A*02:12; test: as above; settings: source organism: Canarypox virus
# [33] = target: HLA-A*26:01; test: as above; settings: source organism: Canarypox virus
# [34] = target: HLA-B*18:01; test: as above; settings: source organism: Canarypox virus
# [35] = target: HLA-B*15:01; test: as above; settings: source organism: Canarypox virus
# [36] = target: HLA-A*31:01; test: as above; settings: source organism: Canarypox virus
# [37] = target: HLA-A*24:03; test: as above; settings: source organism: Canarypox virus
# [38] = target: HLA-A*02:19; test: as above; settings: source organism: Canarypox virus
# [39] = target: HLA-A*23:01; test: as above; settings: source organism: Canarypox virus
# [40] = target: HLA-A*02:16; test: as above; settings: source organism: Canarypox virus
# [41] = target: HLA-A*69:01; test: as above; settings: source organism: Canarypox virus
# [42] = target: HLA-B*57:01; test: as above; settings: source organism: Canarypox virus
# [43] = target: HLA-B*51:01; test: as above; settings: source organism: Canarypox virus
# [44] = target: HLA-B*27:03; test: as above; settings: source organism: Canarypox virus
# [45] = source organism: Mycobacterium tuberculosis
# [46] = source organism: Mycobacterium tuberculosis str. Haarlem
# [47] = source organism: Salmonella enterica subsp. enterica serovar Typhi
sequence,measurement,setting,value
SFYGYGFNV,Kd,[1]; [45],0.413 µM
same,Kd,[2]; [46],10 nM
same,Kd,[3]; [45],52 nM
same,Kd,[4]; source organism: Mycobacterium tuberculosis H37Ra,22.4 nM
FIKNPACTV,Kd,[1]; [47],6.36 µM
same,Kd,[2]; [47],2 nM
same,Kd,[5],≤ 1 nM
same,Kd,[3]; [47],154 nM
same,Kd,[4]; [47],1.9 nM
WEITYLGTT,Kd,[1]; [45],≥ 20 µM
same,Kd,[6],≥ 20 µM
same,Kd,[7],≥ 20 µM
same,Kd,[8],≥ 20 µM
same,Kd,[9]; [46],≥ 20000 nM
same,Kd,[10],≥ 20 µM
same,Kd,[11]; [46],≥ 20000 nM
same,Kd,[12],297 nM
same,Kd,[13],≥ 20 µM
same,Kd,[14],≥ 10 µM
same,Kd,[15],≥ 20 µM
same,Kd,[16],3.26 µM
same,Kd,[17],≥ 20 µM
same,Kd,[18],≥ 20 µM
same,Kd,[19],≥ 20 µM
same,Kd,[3]; [45],≥ 20000 nM
same,Kd,[20],≥ 20 µM
same,Kd,[21],≥ 20 µM
same,Kd,[22],≥ 20 µM
same,Kd,[23],≥ 20 µM
same,Kd,[24],≥ 20 µM
same,Kd,[25]; source organism: Mycobacterium tuberculosis variant bovis BCG str. Pasteur 1173P2,≥ 20 µM
GTIIVHPNK,Kd,[26],≥ 20 µM
same,Kd,[27],≥ 20 µM
same,Kd,[28],≥ 20 µM
same,Kd,[29],≥ 20 µM
same,Kd,[30],≥ 20 µM
same,Kd,[31],≥ 20 µM
same,Kd,[32],≥ 20 µM
same,Kd,[33],≥ 20 µM
same,Kd,[34],≥ 20 µM
same,Kd,[35],≥ 20 µM
same,Kd,[36],101 nM
same,Kd,[37],≥ 20 µM
same,Kd,[38],≥ 20 µM
same,Kd,[39],≥ 20 µM
same,Kd,[40],≥ 20 µM
same,Kd,[41],≥ 20 µM
same,Kd,[25]; source organism: Canarypox virus,≥ 20 µM
same,Kd,[42],≥ 20 µM
same,Kd,[43],≥ 20 µM
same,Kd,[44],≥ 20 µM
AHDELENYI,Kd,[9]; source organism: Camelpox virus CMS,2860 nM
same,Kd,[11]; source organism: Variola virus,1670 nM
